Reference: patent publication US20240368283A1

Tests used:
[1] = target: human FcγRIIβ (human) (UniProt P31994); test: SPR, antibody captured on ProA/G HC30M chip, recombinant human FcγRIIβ injected (4 nM-5 uM); average kinetic KD
[2] = target: Hu FcγRIIA_R131 (human) (UniProt P12318); test: SPR-type chip kinetics; antibody captured on protein A/G chip, receptor as analyte
[3] = target: Hu FcγRIIA_H131 (human) (UniProt P12318); test: as above
Sequence of Hu FcγRIIA_H131 (human) (P12318 36-218 limits assumed): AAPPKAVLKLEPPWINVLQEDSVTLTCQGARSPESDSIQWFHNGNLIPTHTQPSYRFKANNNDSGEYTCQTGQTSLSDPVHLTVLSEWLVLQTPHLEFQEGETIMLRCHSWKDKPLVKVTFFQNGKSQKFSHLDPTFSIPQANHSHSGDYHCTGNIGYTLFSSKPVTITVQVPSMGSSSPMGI

Sequence of human FcγRIIβ (human) (P31994 46-217 limits assumed): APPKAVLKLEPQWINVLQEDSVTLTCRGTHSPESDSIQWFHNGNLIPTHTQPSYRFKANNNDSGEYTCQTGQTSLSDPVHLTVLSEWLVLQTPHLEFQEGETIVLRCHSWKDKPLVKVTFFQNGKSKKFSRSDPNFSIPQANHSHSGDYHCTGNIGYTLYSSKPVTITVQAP
Sequence of Hu FcγRIIA_R131 (human) (P12318 36-218 H167R limits assumed): as the sequence (P12318 36-218 limits assumed) above, with H132R counted along it

Substance | Kd [1] | Kd [2] | Kd [3]
2B6 (antibody) | 0.407 nM |  | 
IgG1 WT (antibody) |  | 1550 nM | 1000 nM
